Reference: the RNAGym collection of RNA variant scans (doi:10.7554/elife.90254)

B1: LINE1-full (parent)
chain: UACGUAGGUGGUUUUCCCCUGAUAGUGCUAAGGGGGCCUGGAAGUUUGGACUGGGCAGAGCUCAACACAGCGUGGCAAAGUGGCUGUGGCUAGACUGCCUCUCUGGAUUCCUCGUCACUCAGCAGGGCAUCUCUGAGAGAAAUGCC

Variants of: B1
Assay: self-cleavage, relative activity (ratio to wild type); higher = more cleavage; in vitro, sequencing; the parent is a self-cleaving ribozyme

Variant | self-cleavage
U39A A138U | 1.75
U39A A140U | 1.23
U39A A142C | 1.59
U39A C63U | 0.43
U39A C103U | 1.74
U39A C120U | 1.56
U39A G53U | 1.63
U39A G60A | 0.05
U39A G72A | 1.81
U39A G74A | 0.88
U39A G89A | 0.06
U39A G105U | 1.23
U39A G106A | 1.35
U39A G114A | 1.19
U39A G114U | 1.15
U39A G122A | 0.54
U39A U46C | 1.5
U39A U47A | 0.93
U39A U52C | 1.72
U39A U81A | 2.08
U39A U87C | 0.22

Variant | self-cleavage
U39A U91C | 0.43
U39A U96A | 0.04
U39A U96C | 0.19
U39A U96G | 0.14
U39A U100C | 1.67
U39A U102A | 1.62
U39A U104C | 1.57
U39A U108C | 1.24
U39A U112C | 1.38
U39A U115A | 1.42
U39A U115C | 1.31
U39A U130A | 1.38
U39A U132C | 1.38
U39A U134C | 1.3
U39A U143C | 1.42
U39C | 1.14
U39C A42U | 0.73
U39C A50G | 0.77
U39C A57U | 0.06
U39C A59G | 0.04
U39C A59U | 0.61

Variant | self-cleavage
U39C A64U | 0.35
U39C A65G | 0.09
U39C A69G | 0.39
U39C A77U | 0.96
U39C A78U | 1.42
U39C A79U | 1.2
U39C A92G | 0.09
U39C A92U | 0.58
U39C A94G | 0.11
U39C A107G | 1.36
U39C A117G | 1.37
U39C A117U | 1.49
U39C A121C | 1.37
U39C A121G | 1.67
U39C A121U | 1.04
U39C A124U | 1.26
U39C A129G | 1.61
U39C A129U | 1.05
U39C A140G | 1.3
U39C A140U | 1.22
U39C A141G | 1.11

Variant | self-cleavage
U39C A142G | 1.18
U39C C63A | 0.05
U39C C63U | 0.25
U39C C71A | 0.09
U39C C90G | 0.03
U39C C90U | 0.07
U39C C99U | 0.5
U39C C113U | 1.26
U39C C116U | 1.05
U39C C123U | 0.9
U39C C131U | 1
U39C C145U | 0.99
U39C G40A | 0.73
U39C G40C | 1.48
U39C G53U | 1.26
U39C G55A | 0.08
U39C G72A | 1.07
U39C G75A | 0.83
U39C G83U | 0.52
U39C G86A | 0.09
